Experimental findings from ChEMBL document CHEMBL1132216, “Studies on the monoamine oxidase-B-catalyzed biotransformation of 4-azaaryl-1-methyl-1,2,3,6-tetrahydropyridine derivatives” (J Med Chem, 1999) are described below.

Holding throughout (experiment): not read
Substrate in data set [1]: CN1CC=C(c2cccn2C)CC1
Description: (§1) Km against bovine liver Monoamine oxidase B
Substrate in data set [2]: CN1CC=C(n2ncc3ccccc32)CC1
Description: as §1
Substrate in data set [3]: CN1CC=C(c2ccncc2)CC1
Description: as §1
Substrate in data set [4]: CN1CC=C(c2ccc[nH]2)CC1
Description: as §1
Substrate in data set [5]: CN1CC=C(n2ccc3ccccc32)CC1
Description: as §1
Substrate in data set [6]: CN1CC=C(n2nnc3ccccc32)CC1
Description: as §1
Substrate in data set [7]: CN1CC=C(n2cnc3ccccc32)CC1
Description: as §1
Substrate in data set [8]: CN1CC=C(n2cccc2)CC1
Description: as §1

By Km is commonly meant the substrate concentration at which the rate is half of its maximum. By kcat is commonly meant the maximal rate divided by the concentration of active sites.

B1: Amine oxidase [flavin-containing] B (Bos taurus) (protein)
chain: MSSKCDVVVVGGGISGMAAAKLLHDSGLNVIVLEARDRVGGRTYTLRNQKVKYVDLGGSYVGPTQNHILRLSKELGLETYKVNEVERLIHHTKGKSYPFRGSFPSVWNPITYLDHNNLWRTMDDMGREIPSDAPWKAPLAEQWDLMTMKELLDKICWTESSKQLAILFVNLCVTAEIHEVSALWFLWYVKQCGGTTRIFSTSNGGQERKFVGGSGQVSERIMDLLGDRVKLERPVIHIDQTGENVLVETLNHELYEAKYVISAVPPVLGMKIHFNPPLPMMRNQLITRVPLGSVIKSIVYYKEPFWRNMDYCGSMIIEGEEAPVAYALDDTKPDGSYPAIIGFILAHKARKLARLTKEERLKKLCDLYAKVLGSQEALHPVHYEEKNWCEEQYSGGCYTSYFPPGIMTQYGRVLRQPVGRIYFAGTETATHWSGYMEGAVEAGERAAREILHAMGKIPEDEIWLPEPESVDVPAKPITTTFLQRHLPSVPGLLKLIGLTTIFSATALGFLAHKRGLLVRI
Take B1: the Km in “not read [1]” is 200 µM; in the data set “not read [2]”, 100 µM; in “not read [3]” it was 2400 µM; in the data set “not read [4]”, 1800 µM; in the data set “not read [5]”, 110 µM; in the data set “not read [6]”, 80 µM. Further, the Km in “not read [7]” was 900 µM; in the data set “not read [8]”, 650 µM. Besides, the kcat in “not read [1]” is 6 s⁻¹; in “not read [2]” it was 2 s⁻¹; in “not read [3]” it was 0.233 s⁻¹; in “not read [4]”, 1.42 s⁻¹; in the data set “not read [5]” it was 6.9 s⁻¹; in the data set “not read [6]” it was 0.9 s⁻¹. Also, the values for the kcat in the data set “not read [7]” and in “not read [8]” were 3.33 s⁻¹ and 4.47 s⁻¹, respectively.
